# Measured values from patent publication US20260193326A1 (published 2026).
# Substitutions are numbered along the chain they refer to. Like-named read-outs stand apart in the source and are kept apart here.
# B1: A4-B3 (VHH)
# chain: VQLVESGGGLVQPGGSLRLSCAASGRSFSINTMGWFRQAPGKGLEAVAIVTRGGSTYYADSVKGRFTISRDNSKNTLYLQMNSLRAEDTAVYYCHIDEVRQSSWTTSNIWGQGTLVTVSSGGGGSGGGGSGGGGSVQLVESGGGLVQPGGSLRLSCAASGRSFSINTMGWFRQAPGKGLEAVAIVTRGGSTYYADSVKGRFTISRDNSKNTLYLQMNSLRAEDTAVYYCHIDEVRQSSWTTSNIWGQGTLVTVSS
# B2: A4-B4 (bispecific antibody)
# chain: B1 chain with R161S, S162I, T167L, A181L, V185I, R187P, S190N, L212V, I231V, I244L
# B3: A4-M1 (A4-017 with an N-terminal amino acid sequence MetAlaGln) (VHH)
# VHH: QVQLQESGGGLVQPGGSLRLSCAASGSIFSINLMGWYRQAPGKQRELVATITRGGNTNYAGSVKGRFTISRDNAKNTVYLQMNSLRPEDTAVYYCHVDEVRQSSWTTSNLWGQGTQVTVSS
# B4: A4-M2 (A4-017 with an N-terminal methionine) (VHH)
# VHH: B3 VHH
# B5: A4-002 (VHH)
# VHH: VQLQESGGGLVQPGGSLRLSCAASGRSFSINTMGWYRQAPGKQRELVAAVTRGGSTNYAGSVKGRFTISRDNAKNTVYLQMNSLRPEDTAVYYCHIDEVRQSSWTTSNIWGQGTQVTVSS
# B6: A4-008 (VHH)
# VHH: B5 VHH with P13A, S27A, G41P, A49T, V77I, I96V
# B7: A4-H1 (VHH)
# VHH: VQLVESGGGLVQPGGSLRLSCAASGRSFSINTMGWFRQAPGKGLEAVAIVTRGGSTYYADSVKGRFTISRDNSKNTLYLQMNSLRAEDTAVYYCHIDEVRQSSWTTSNIWGQGTLVTVSS
# B8: A4-H4 (VHH)
# VHH: B7 VHH with R26S, S27I, T32L, A46L, V50I, R52P, S55N, L77V, I96V, I109L
# B9: A4-H6 (VHH)
# VHH: B7 VHH with S27G, L44R, A46L, S55T, L77V, I96V, I109L
# B10: A4-114 (VHH)
# VHH: VQLQESGGGLVQTGGSLRLSCVASGSIFSINTVGWYRQAPGKQRELVATVTRAGSTWYAGSVKGRFTISRDNTKNTIYLQMNSLRPEDTAVYYCHVDELRQSTWTTSNLWGQGTQVTVSS
# B11: A4-105 (VHH)
# VHH: VQLQESGGGLVQPGGSLRLSCAASGSIFSLNAMGWYRQAPGKQRELVATITSGGSTNYADSVKGRFTISRDNAKNTAYLQMNNLQPEDTAVYYCHVDEVRESIWTTSNLWGQGTQVTVSS
# B12: A4-T1 (A4-017 with a C-terminal 6xHis tag) (VHH)
# VHH: B5 VHH with R26S, S27I, T32L, A49T, V50I, S55N, I96V, I109L
# B13: A4-T2 (A4-017 with a C-terminal GGGGS linker followed by a 6xHis tag) (VHH)
# VHH: B5 VHH with R26S, S27I, T32L, A49T, V50I, S55N, I96V, I109L
# B14: A4-L1 (A4-017 with a C-terminal IgA hinge followed by a 6xHis tag) (VHH)
# VHH: B5 VHH with R26S, S27I, T32L, A49T, V50I, S55N, I96V, I109L
# B15: A4-111 (VHH)
# VHH: VQLQESGGGLAQPGGSLRLSCAASGSNFSINTMGWYRQRAGKQREFVATITRGGSTNYGDSVKGRFTISRDNAKTTVYLQMNSLRPEDTAVYYCHLDEVRESTWTTSNLWGQGTQVTVSS
# Key:
# [1] = target: T1, AAV8 (adeno-associated virus serotype 8); assay: SPR, AAV on CM5 chip
# T1 construct: also called adeno-associated virus serotype 8
# [2] = target: T2, AAV2 (adeno-associated virus serotype 2, UniProt P03135 1-735); assay: SPR, AAV on CM5 chip
# T2 construct: also called adeno-associated virus serotype 2
# [3] = target: T3, AAV9 (adeno-associated virus serotype 9); assay: SPR, AAV on CM5 chip
# T3 construct: also called adeno-associated virus serotype 9
# [4] = target: T4, AAV5 (adeno-associated virus serotype 5); assay: SPR, AAV on CM5 chip
# T4 construct: also called adeno-associated virus serotype 5
# [5] = target: Adeno-associated virus serotype 8 (AAV8) (AAV8); assay: SPR, AAV amine-coupled to CM5 chip, nanobody 1-50 nM as analyte
# [6] = target: Adeno-associated virus serotype 9 (AAV9) (AAV9); assay: as above
# [7] = target: Adeno-associated virus serotype 5 (AAV5) (AAV5); assay: as above
# [8] = target: T5, AAV5 (adeno-associated virus serotype 5 (AAV5)); assay: 1 mL column of A4-002 coupled to agarose gel (11.58 mg/g gel); AAV capsid particles bound
# T5 construct: also called adeno-associated virus serotype 5; AAV5 antigen
# [9] = target: T6, AAV6 (adeno-associated virus serotype 6 (AAV6)); assay: as above
# T6 construct: also called adeno-associated virus serotype 6
# [10] = target: T7, AAV8 (adeno-associated virus serotype 8 (AAV8)); assay: as above
# T7 construct: also called adeno-associated virus serotype 8; AAV8 antigen
# [11] = target: T8, AAV9 (adeno-associated virus serotype 9 (AAV9)); assay: as above
# T8 construct: also called adeno-associated virus serotype 9; AAV9 antigen
# [12] = target: T5, AAV5; assay: 1 mL column of A4-008 coupled to agarose gel (9.77 mg/g gel); AAV capsid particles bound
# [13] = target: T6, AAV6; assay: as above
# [14] = target: T7, AAV8; assay: as above
# [15] = target: T8, AAV9; assay: as above
# [16] = target: T5, AAV5; assay: 1 mL column of A4-008 coupled to agarose gel (10.74 mg/g gel); AAV capsid particles bound
# [17] = target: T6, AAV6; assay: as above
# [18] = target: T7, AAV8; assay: as above
# [19] = target: T8, AAV9; assay: as above
# [20] = target: T1, AAV8; assay: SPR, AAV on CM5 chip; remark: listed apart in the source
# [21] = target: T2, AAV2; assay: SPR, AAV on CM5 chip; remark: listed apart in the source
# [22] = target: T3, AAV9; assay: SPR, AAV on CM5 chip; remark: listed apart in the source
# [23] = target: T4, AAV5; assay: SPR, AAV on CM5 chip; remark: listed apart in the source
# [24] = target: T1, AAV8; assay: SPR, AAV on CM5 chip; remark: listed apart in the source
# Procedure: (§1) AAV was amine-coupled to a CM5 sensor chip at a density of 500-800 response units (RU). Nanobodies were injected at seven concentrations (1-100 nM) with a flow rate of 45 μL/min, and chip regeneration was performed using glycine-HCl (pH 1.5). Binding curves at different nanobody concentrations were used to calculate kinetic parameters (Kₐ, Kd, KD) (Table 2 and FIG. 2).
# [25] = target: T2, AAV2; assay: SPR, AAV on CM5 chip; remark: listed apart in the source
# Procedure: as §1
# [26] = target: T3, AAV9; assay: SPR, AAV on CM5 chip; remark: listed apart in the source
# Procedure: as §1
# [27] = target: T4, AAV5; assay: SPR, AAV on CM5 chip; remark: listed apart in the source
# Procedure: as §1
binder,measurement,setting,value
B1,Kd,[1],0.835 nM
same,koff,[1],8e-05 s⁻¹
same,kon,[1],95800 M⁻¹ s⁻¹
same,Kd,[2],0.245 nM
same,koff,[2],2e-05 s⁻¹
same,kon,[2],81600 M⁻¹ s⁻¹
same,Kd,[3],20.3 nM
same,koff,[3],0.00095 s⁻¹
same,kon,[3],46800 M⁻¹ s⁻¹
same,Kd,[4],0.556 nM
same,koff,[4],0.0001 s⁻¹
same,kon,[4],180000 M⁻¹ s⁻¹
B2,Kd,[1],0.332 nM
same,koff,[1],5e-05 s⁻¹
same,kon,[1],151000 M⁻¹ s⁻¹
same,Kd,[2],0.835 nM
same,koff,[2],8e-05 s⁻¹
same,kon,[2],95800 M⁻¹ s⁻¹
same,Kd,[3],5.26 nM
same,koff,[3],0.00063 s⁻¹
same,kon,[3],120000 M⁻¹ s⁻¹
same,Kd,[4],0.872 nM
same,koff,[4],0.00016 s⁻¹
same,kon,[4],184000 M⁻¹ s⁻¹
B3,Kd,[5],196 nM
same,koff,[5],0.0014 s⁻¹
same,kon,[5],7150 M⁻¹ s⁻¹
same,Kd,[6],0.821 nM
same,koff,[6],0.00015 s⁻¹
same,kon,[6],183000 M⁻¹ s⁻¹
same,Kd,[7],324 nM
same,koff,[7],0.00189 s⁻¹
same,kon,[7],5830 M⁻¹ s⁻¹
B4,Kd,[5],171 nM
same,koff,[5],0.001 s⁻¹
same,kon,[5],5830 M⁻¹ s⁻¹
same,Kd,[6],0.874 nM
same,koff,[6],0.00013 s⁻¹
same,kon,[6],149000 M⁻¹ s⁻¹
same,Kd,[7],415 nM
same,koff,[7],0.002 s⁻¹
same,kon,[7],4820 M⁻¹ s⁻¹
B5,binding capacity,[8],1.17e+14 VP
same,binding capacity,[9],9.2e+13 VP
same,binding capacity,[10],1.02e+14 VP
same,binding capacity,[11],1.26e+14 VP
B6,binding capacity,[12],8.56e+13 VP
same,binding capacity,[13],8.78e+13 VP
same,binding capacity,[14],9.47e+13 VP
same,binding capacity,[15],8.83e+13 VP
same,binding capacity,[16],8.95e+13 VP
same,binding capacity,[17],9.43e+13 VP
same,binding capacity,[18],1.16e+14 VP
same,binding capacity,[19],9.17e+13 VP
B7,Kd,[20],6.82 nM
same,koff,[20],0.00135 s⁻¹
same,kon,[20],198000 M⁻¹ s⁻¹
same,Kd,[21],8.51 nM
same,koff,[21],0.00139 s⁻¹
same,kon,[21],163000 M⁻¹ s⁻¹
same,Kd,[22],127 nM
same,koff,[22],0.00069 s⁻¹
same,kon,[22],5420 M⁻¹ s⁻¹
same,Kd,[23],8.76 nM
same,koff,[23],0.00153 s⁻¹
same,kon,[23],175000 M⁻¹ s⁻¹
B8,Kd,[20],9.44 nM
same,koff,[20],0.00125 s⁻¹
same,kon,[20],132000 M⁻¹ s⁻¹
same,Kd,[21],17.2 nM
same,koff,[21],0.0017 s⁻¹
same,kon,[21],99000 M⁻¹ s⁻¹
same,Kd,[22],5.91 nM
same,koff,[22],0.00078 s⁻¹
same,kon,[22],132000 M⁻¹ s⁻¹
same,Kd,[23],2.86 nM
same,koff,[23],0.00032 s⁻¹
same,kon,[23],112000 M⁻¹ s⁻¹
B9,Kd,[20],344 nM
same,koff,[20],0.00164 s⁻¹
same,kon,[20],4760 M⁻¹ s⁻¹
same,Kd,[21],746 nM
same,koff,[21],0.00565 s⁻¹
same,kon,[21],7570 M⁻¹ s⁻¹
same,Kd,[22],1160 nM
same,koff,[22],0.00177 s⁻¹
same,kon,[22],1530 M⁻¹ s⁻¹
same,Kd,[23],746 nM
same,koff,[23],0.00565 s⁻¹
same,kon,[23],7570 M⁻¹ s⁻¹
B10,Kd,[24],1.81 nM
same,koff,[24],0.00017 s⁻¹
same,kon,[24],94000 M⁻¹ s⁻¹
same,Kd,[25],1.95 nM
same,koff,[25],0.00022 s⁻¹
same,kon,[25],113000 M⁻¹ s⁻¹
same,Kd,[26],472 nM
same,koff,[26],0.00123 s⁻¹
same,kon,[26],2610 M⁻¹ s⁻¹
same,Kd,[27],7.11 nM
same,koff,[27],0.0011 s⁻¹
same,kon,[27],155000 M⁻¹ s⁻¹
B11,Kd,[24],21.7 nM
same,koff,[24],0.00391 s⁻¹
same,kon,[24],180000 M⁻¹ s⁻¹
same,Kd,[25],34.2 nM
same,koff,[25],0.00543 s⁻¹
same,kon,[25],159000 M⁻¹ s⁻¹
same,Kd,[26],17 nM
same,koff,[26],0.00189 s⁻¹
same,kon,[26],111000 M⁻¹ s⁻¹
same,Kd,[27],14 nM
same,koff,[27],0.00139 s⁻¹
same,kon,[27],99600 M⁻¹ s⁻¹
B12,Kd,[5],202 nM
same,koff,[5],0.00148 s⁻¹
same,kon,[5],7310 M⁻¹ s⁻¹
same,Kd,[6],0.713 nM
same,koff,[6],0.00012 s⁻¹
same,kon,[6],168000 M⁻¹ s⁻¹
same,Kd,[7],268 nM
same,koff,[7],0.00193 s⁻¹
same,kon,[7],7200 M⁻¹ s⁻¹
B13,Kd,[5],102 nM
same,koff,[5],0.00078 s⁻¹
same,kon,[5],7650 M⁻¹ s⁻¹
same,Kd,[6],0.513 nM
same,koff,[6],0.0001 s⁻¹
same,kon,[6],195000 M⁻¹ s⁻¹
same,Kd,[7],234 nM
same,koff,[7],0.00147 s⁻¹
same,kon,[7],6280 M⁻¹ s⁻¹
B14,Kd,[5],220 nM
same,koff,[5],0.00093 s⁻¹
same,kon,[5],4230 M⁻¹ s⁻¹
same,Kd,[6],0.802 nM
same,koff,[6],0.00011 s⁻¹
same,kon,[6],137000 M⁻¹ s⁻¹
same,Kd,[7],569 nM
same,koff,[7],0.00092 s⁻¹
same,kon,[7],1620 M⁻¹ s⁻¹
B15,Kd,[24],1.88 nM
same,koff,[24],0.00014 s⁻¹
same,kon,[24],74500 M⁻¹ s⁻¹
same,Kd,[25],3.51 nM
same,koff,[25],0.0002 s⁻¹
same,kon,[25],56900 M⁻¹ s⁻¹
same,Kd,[26],2 nM
same,koff,[26],0.00025 s⁻¹
same,kon,[26],125000 M⁻¹ s⁻¹
same,Kd,[27],1.06 nM
same,koff,[27],9e-05 s⁻¹
same,kon,[27],85300 M⁻¹ s⁻¹
